From patent publication US7514207B2, “Methods of screening for compounds that decrease phosphorylation of merlin and may be useful in cancer treatment” (Massachusetts Institute of Technology, priority 2001, dated 2009) come the findings set out here.

One data set relates to merlin kinase. The data set can be described thus: In-vitro merlin kinase assay with kinase inhibitors. Format: biochemical. As to conditions: for concentration range inhibiting the merlin kinase: inhibition of the activity of the merlin kinase.
Data set [1] addresses T1, GST-merlin pseudo-substrate (residues 478-535 of merlin fused to glutathione-S-transferase), P35240.
T1 chain: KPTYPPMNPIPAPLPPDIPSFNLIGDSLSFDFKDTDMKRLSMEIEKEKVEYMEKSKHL

Data set [2] concerns the target merlin expressed from an inducible allele in the RT4-D6P2T cell line.
The subject of data set [3] is phosphorylation of merlin induced by activated Rac or cdc42. The data set can be described thus: In-vivo merlin phosphorylation in co-transfected NIH3T3 cells (western blot). It is filed as cell-based. The conditions noted are these: NIH3T3 cells co-transfected with merlin, activated Rac or cdc42 and the PAK2 AID. How it is done:
In the in-vitro kinase assays where full-length merlin was used, cells transfected with merlin expression vectors were extracted, and merlin was immunoprecipitated using a commercially available antibody SC-331 (Santa Cruz) and Protein A-agarose beads. In the in-vivo studies, cells were transfected with various expression vectors and harvested after 48 hours into SDS-boiling buffer (10 mM Tris pH 7.5, 50 mM NaF, and 1% SDS). Cells were scraped off the plates and boiled for 5′. Protein concentration was determined by the BCA method (Pierce) and resolved by 9% SDS-PAGE and western blot analysis.
The inhibitory fragment in PAK2 resides between residues 82-146 (equivalent to the 83-149 AID of PAK1). […] To further investigate the role of PAK2 in induction of merlin phosphorylation, the ability of the AID to inhibit this activity was assessed. NIH3T3 cells were co-transfected with expression vectors for merlin, activated Rac, or cdc42 and the PAK2 AID.
A general note: In western blotting, separated proteins are transferred to a membrane and probed.

For the molecule `COC(=O)[C@@]1(O)C[C@H]2O[C@]1(C)n1c3ccccc3c3c4c(c5c6ccccc6n2c5c31)C(=O)NC4` [K252a], the “concentration range inhibiting the merlin kinase” value in the data set on merlin kinase was “mM range”.

Regarding `NCCNS(=O)(=O)c1cccc2cnccc12` [H9], in the data set on merlin kinase (no effect up to this concentration), the “concentration up to which no effect on the merlin kinase was seen” value was above 1 mM.

For the molecule `CCCCCCOC(=O)[C@]1(O)C[C@@H]2O[C@@]1(C)n1c3ccccc3c3c4c(c5c6ccccc6n2c5c31)C(=O)NC4` [K-5720], the “concentration range inhibiting the merlin kinase” value with merlin kinase is reported as “mM range”.

B1: PAK2 wild-type (transfected) (protein)
chain: MSDNGELEDKPPAPPVRMSSTIFSTGGKDPLSANHSLKPLPSVPEEKKPRHKIISIFSGTEKGSKKKEKERPEISPPSDFEHTIHVGFDAVTGEFTGMPEQWARLLQTSNITKLEQKKNPQAVLDVLKFYDSNTVKQKYLSFTPPEKDGFPSGTPALNAKGTEAPAVVTEEEDDDEETAPPVIAPRPDHTKSIYTRSVIDPVPAPVGDSHVDGAAKSLDKQKKKTKMTDEEIMEKLRTIVSIGDPKKKYTRYEKIGQGASGTVFTATDVALGQEVAIKQINLQKQPKKELIINEILVMKELKNPNIVNFLDSYLVGDELFVVMEYLAGGSLTDVVTETCMDEAQIAAVCRECLQALEFLHANQVIHRDIKSDNVLLGMEGSVKLTDFGFCAQITPEQSKRSTMVGTPYWMAPEVVTRKAYGPKVDIWSLGIMAIEMVEGEPPYLNENPLRALYLIATNGTPELQNPEKLSPIFRDFLNRCLEMDVEKRGSAKELLQHPFLKLAKPLSSLTPLIMAAKEAMKSNR
Turning to B1, the “phosphorylation of the pseudo-substrate in an in-vitro kinase assay” value (“phosphorylation of the pseudo-substrate” for short) in data set [1] was “Only extracts from cells transfected with PAK2 and PAK3 were able to effectively phosphorylate the pseudo-substrate”.

B2: PAK1 (transfected) (protein)
chain: MSNNGLDIQDKPPAPPMRNTSTMIGAGSKDAGTLNHGSKPLPPNPEEKKKKDRFYRSILPGDKTNKKKEKERPEISLPSDFEHTIHVGFDAVTGEFTGMPEQWARLLQTSNITKSEQKKNPQAVLDVLEFYNSKKTSNSQKYMSFTDKSAEDYNSSNALNVKAVSETPAVPPVSEDEDDDDDDATPPPVIAPRPEHTKSVYTRSVIEPLPVTPTRDVATSPISPTENNTTPPDALTRNTEKQKKKPKMSDEEILEKLRSIVSVGDPKKKYTRFEKIGQGASGTVYTAMDVATGQEVAIKQMNLQQQPKKELIINEILVMRENKNPNIVNYLDSYLVGDELWVVMEYLAGGSLTDVVTETCMDEGQIAAVCRECLQALEFLHSNQVIHRDIKSDNILLGMDGSVKLTDFGFCAQITPEQSKRSTMVGTPYWMAPEVVTRKAYGPKVDIWSLGIMAIEMIEGEPPYLNENPLRALYLIATNGTPELQNPEKLSAIFRDFLNRCLEMDVEKRGSAKELLQHQFLKIAKPLSSLTPLIAAAKEATKNNH
Turning to B2, in data set [1], the “phosphorylation of the pseudo-substrate” value is “Other kinases, which are known effectors of cdc42/Rac, including PAK1, LIM-kinase and JNK, did not induce phosphorylation of merlin in these assays”.

B3: endogenous PAK1 of RT4 cells (protein)
chain: SNNGLDVQDKPPAPPMRNTSTMIGAGSKDPGTLNHGSKPLPPNPEEKKKKDRFYRSILAGDKTNKKKEKERPEISLPSDFEHTIHVGFDAVTGEFTGMPEQWARLLQTSNITKSEQKKNPQAVLDVLEFYNSKKTSNSQKYMSFTDKSAEDYNSSNTLNVKTVSETPAVPPVSEDEDDDDDATPPPVIAPRPEHTKSVYTRSVIEPLPVTPTRDVATSPISPTENNTTPPDALTRNTEKQKKKPKMSDEEILEKLRSIVSVGDPKKKYTRFEKIGQGASGTVYTAMDVATGQEVAIKQMNLQQQPKKELIINEILVMRENKNPNIVNYLDSYLVGDELWVVMEYLAGGSLTDVVTETCMDEGQIAAVCRECLQALEFLHSNQVIHRDIKSDNILLGMDGSVKLTDFGFCAQITPEQSKRSTMVGTPYWMAPEVVTRKAYGPKVDIWSLGIMAIEMIEGEPPYLNENPLRALYLIATNGTPELQNPEKLSAIFRDFLNRCLEMDVEKRGSAKELLQHQFLKIAKPLSSLTPLIAAAKEATKNNH
Regarding B3, the “phosphorylation status (activation) of PAK1 by 2-dimensional protein analysis” value in data set [2] is on record as “The basal levels of activated PAK1 were reduced under conditions of high merlin expression compared to conditions of low merlin expression”.

B4: PAK2 of NIH3T3 cell extracts (endogenous) (protein)
chain: SDNGELEDKPPAPPVRMSSTIFSTGGKDPLSANHSLKPLPSVPEEKKPRNKIISIFSGTEKGSKKKEKERPEISPPSDFEHTIHVGFDAVTGEFTGMPEQWARLLQTSNITKLEQKKNPQAVLDVLKFYDSNTVKQKYLSFTPPEKDGFPSGTPALNTKGSETSAVVTEEDDDDEDAAPPVIAPRPDHTKSIYTRSVIDPIPAPVGDSNVDSGAKSSDKQKKKAKMTDEEIMEKLRTIVSIGDPKKKYTRYEKIGQGASGTVFTATDVALGQEVAIKQINLQKQPKKELIINEILVMKELKNPNIVNFLDSYLVGDELFVVMEYLAGGSLTDVVTETCMDEAQIAAVCRECLQALEFLHANQVIHRDIKSDNVLLGMEGSVKLTDFGFCAQITPEQSKRSTMVGTPYWMAPEVVTRKAYGPKVDIWSLGIMAIEMVEGEPPYLNENPLRALYLIATNGTPELQNPEKLSPIFRDFLNRCLEMDVEKRGSAKELLQHPFLKLAKPLSSLTPLILAAKEAMKSNR
Regarding B4, the “kinase activity on the GST-merlin substrate after immunodepletion of PAK2” value in data set [1] was “extracts immunodepleted for PAK2 (+PAK2 Ab) had a 2-3 fold reduction in kinase activity”.

B5: PAK3 (transfected) (protein)
chain: MSDGLDNEEKPPAPPLRMNSNNRDSSALNHSSKPLPMAPEEKNKKARLRSIFPGGGDKTNKKKEKERPEISLPSDFEHTIHVGFDAVTGEFTGIPEQWARLLQTSNITKLEQKKNPQAVLDVLKFYDSKETVNNQKYMSFTSGDKSAHGYIAAHPSSTKTASEPPLAPPVSEEEDEEEEEEEDENEPPPVIAPRPEHTKSIYTRSVVESIASPAVPNKEVTPPSAENANSSTLYRNTDRQRKKSKMTDEEILEKLRSIVSVGDPKKKYTRFEKIGQGASGTVYTALDIATGQEVAIKQMNLQQQPKKELIINEILVMRENKNPNIVNYLDSYLVGDELWVVMEYLAGGSLTDVVTETCMDEGQIAAVCRECLQALDFLHSNQVIHRDIKSDNILLGMDGSVKLTDFGFCAQITPEQSKRSTMVGTPYWMAPEVVTRKAYGPKVDIWSLGIMAIEMVEGEPPYLNENPLRALYLIATNGTPELQNPERLSAVFRDFLNRCLEMDVDRRGSAKELLQHPFLKLAKPLSSLTPLIIAAKEAIKNSSR
In the case of B5, in data set [1], the “phosphorylation of the pseudo-substrate” value was “Only extracts from cells transfected with PAK2 and PAK3 were able to effectively phosphorylate the pseudo-substrate”.

B6: PAK2 AID: auto-inhibitory domain of PAK2, residues 82-146, expressed from pcDNA3; dominant negative fragment (protein)
chain: HTIHVGFDAVTGEFTGMPEQWARLLQTSNITKLEQKKNPQAVLDVLKFYDSNTVKQKYLSFTPPE
For B6, the “decrease in the ratio of hyper-phosphorylated to hypo-phosphorylated merlin” value in data set [3] is listed as 3-4 fold.
